From patent US20120207759A1 (WASHINGTON UNIVERSITY, published 2012)
Values belong to the binder of their own block, whether it stands above or below them.

Assays:
[1] = molecular target: T1, human HVEM expressed on transduced BJAB cells (full length) (human, UniProt Q92956 39-283); test: flow cytometry on transduced BJAB cells
T1 construct: also called hHVEM; hHVEM-IRES-GFP
T1 sequence: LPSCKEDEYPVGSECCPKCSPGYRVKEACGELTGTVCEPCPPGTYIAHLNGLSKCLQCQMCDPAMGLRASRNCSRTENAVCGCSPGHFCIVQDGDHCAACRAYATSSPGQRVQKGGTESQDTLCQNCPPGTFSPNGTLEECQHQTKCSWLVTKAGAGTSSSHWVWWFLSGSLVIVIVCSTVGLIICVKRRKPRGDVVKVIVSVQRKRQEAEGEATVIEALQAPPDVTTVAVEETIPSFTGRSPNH
From the text: (§1) FIG. 36 HVEM is a ligand for BTLA. (A) NIH 3T3 cells and BJAB cells were transduced with splenocyte cDNA libraries and were directly stained with anti-Thy1.1-FITC and the C57BL/6 BTLA tetramer-phycoerythrin (Before sorting). These cells were sorted for the highest 0.5% population of BTLA tetramer staining with BTLA-phycoerythrin tetramer and Thy1.1-FITC and were subjected to an additional three rounds of similar sequential purification. After the fourth round of sorting, cell populations were expanded and cells were stained (After sorting). Numbers in each quadrant indicate the percentage of live cells in the indicated gate. (B) BJAB cells were transduced with the retroviruses mHVEM-IRES-GFP (mHVEM; mouse), hHVEM-IRES-GFP (hHVEM; human), 4-1 BB-IRES-GFP (4-1 BB; mouse) and LTβR-1RES-GFP (LTβR; mouse) and were stained with C57BL/6 BTLA tetramer-phycoerythrin or BALB/c BTLA tetramer-phycoerythrin. Numbers in dot plots indicate the percentage of BTLA tetramer staining in the GFP-positive population. (C, D) HVEM activates BTLA phosphorylation and SHP-2 association. EL-4 cells (EL4), BJAB cells expressing GFP (BJAB-GFP) or BJAB cells expressing mouse HVEM (BJAB-mHVEM) were added (+) or not added (−) for 4 min at 37° C. at a density of 25×10⁶ cells/ml. Cells were left untreated (−) or were treated (+) with pervanadate (VO₄) for 4 min. Total cell lysates were prepared and were immunoprecipitated with 6A6 (anti-mouse BTLA), and immunoblots were probed for SHP-2 (C) or for phosphotyrosine (D) in immunoprecipitates (IP) or in lysates without immunoprecipitation. Immunoblots using the isotype control for immunoprecipitation were negative for SHP-2 association (data not shown). Data in C and d are representative of four independent experiments. (E) BJAB cells were transduced with retrovirus mHVEM-ires-GFP or hHVEM-ires-GFP and were stained with human IgG1 isotype control (hIgG1), mB7x-Fc, mBTLA-Fc or hBTLA-Fc followed by anti-human IgG-phycoerythrin. Numbers in dot plots show the percentage of fusion protein staining in the GFP-positive population.

[2] = molecular target: T2, mouse LTβR expressed on transduced BJAB cells (mouse, UniProt P50284 31-415); test: flow cytometry on transduced BJAB cells
T2 construct: whole, on cells; also called LTI3R; mLT R
T2 sequence (P50284 31-415): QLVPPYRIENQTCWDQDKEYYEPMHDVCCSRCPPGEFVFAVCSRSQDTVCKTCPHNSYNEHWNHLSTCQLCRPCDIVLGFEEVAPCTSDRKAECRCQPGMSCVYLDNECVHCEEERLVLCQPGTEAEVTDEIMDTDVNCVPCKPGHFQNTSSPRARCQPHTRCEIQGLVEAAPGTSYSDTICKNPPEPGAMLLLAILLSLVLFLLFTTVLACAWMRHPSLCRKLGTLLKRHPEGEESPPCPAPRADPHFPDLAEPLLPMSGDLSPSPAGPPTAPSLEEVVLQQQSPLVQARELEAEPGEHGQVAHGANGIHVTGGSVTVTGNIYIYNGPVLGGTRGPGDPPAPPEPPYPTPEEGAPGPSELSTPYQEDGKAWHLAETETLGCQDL
From the text: as §1

[3] = molecular target: T3, mouse 4-1BB expressed on transduced BJAB cells (mouse, UniProt P20334 24-256); test: flow cytometry on transduced BJAB cells
T3 construct: whole, on cells; also called m4-1BB; 4-1 BB-IRES-GFP
T3 sequence (looked up): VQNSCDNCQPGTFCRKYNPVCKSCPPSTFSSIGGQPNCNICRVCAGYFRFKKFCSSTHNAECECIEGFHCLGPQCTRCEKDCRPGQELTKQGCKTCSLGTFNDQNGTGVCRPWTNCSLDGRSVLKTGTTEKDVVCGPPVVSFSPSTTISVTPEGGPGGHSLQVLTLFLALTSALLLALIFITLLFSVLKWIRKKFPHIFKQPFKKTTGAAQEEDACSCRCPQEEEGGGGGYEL
From the text: as §1

[4] = molecular target: T4, C57BL/6 allele of mouse BTLA expressed on transfected cells as a GFP fusion protein (mouse, UniProt Q7TSA3 30-306); test: flow cytometry on NIH 3T3 transfectants
T4 construct: also called BJAB.B6 BTLA-GFP; C57BL/6 BTLA; not shown: GFP without its start codon
T4 sequence: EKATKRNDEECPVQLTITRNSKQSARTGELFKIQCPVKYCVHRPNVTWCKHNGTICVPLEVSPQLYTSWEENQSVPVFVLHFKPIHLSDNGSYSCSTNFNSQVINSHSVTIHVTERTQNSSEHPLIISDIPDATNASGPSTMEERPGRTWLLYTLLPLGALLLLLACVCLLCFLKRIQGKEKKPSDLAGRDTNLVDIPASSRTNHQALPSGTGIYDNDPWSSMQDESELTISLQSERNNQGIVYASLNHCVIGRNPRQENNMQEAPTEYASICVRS
From the text: (§2) To test for direct interactions between BTLA and B7x, we made NI H 3T3 cell lines stably expressing the extracellular domains of B7x, BTLA, and programmed death 1 (PD-1) and its ligand (PD-L1), and stained the cells with PD-1 and BTLA tetramers and with PD-L1 and B7x Fc fusion proteins.

SHIP = molecular target: T5, SHIP (UniProt Q92835 1-1189, limits assumed); test: co-immunoprecipitation
T5 sequence (looked up): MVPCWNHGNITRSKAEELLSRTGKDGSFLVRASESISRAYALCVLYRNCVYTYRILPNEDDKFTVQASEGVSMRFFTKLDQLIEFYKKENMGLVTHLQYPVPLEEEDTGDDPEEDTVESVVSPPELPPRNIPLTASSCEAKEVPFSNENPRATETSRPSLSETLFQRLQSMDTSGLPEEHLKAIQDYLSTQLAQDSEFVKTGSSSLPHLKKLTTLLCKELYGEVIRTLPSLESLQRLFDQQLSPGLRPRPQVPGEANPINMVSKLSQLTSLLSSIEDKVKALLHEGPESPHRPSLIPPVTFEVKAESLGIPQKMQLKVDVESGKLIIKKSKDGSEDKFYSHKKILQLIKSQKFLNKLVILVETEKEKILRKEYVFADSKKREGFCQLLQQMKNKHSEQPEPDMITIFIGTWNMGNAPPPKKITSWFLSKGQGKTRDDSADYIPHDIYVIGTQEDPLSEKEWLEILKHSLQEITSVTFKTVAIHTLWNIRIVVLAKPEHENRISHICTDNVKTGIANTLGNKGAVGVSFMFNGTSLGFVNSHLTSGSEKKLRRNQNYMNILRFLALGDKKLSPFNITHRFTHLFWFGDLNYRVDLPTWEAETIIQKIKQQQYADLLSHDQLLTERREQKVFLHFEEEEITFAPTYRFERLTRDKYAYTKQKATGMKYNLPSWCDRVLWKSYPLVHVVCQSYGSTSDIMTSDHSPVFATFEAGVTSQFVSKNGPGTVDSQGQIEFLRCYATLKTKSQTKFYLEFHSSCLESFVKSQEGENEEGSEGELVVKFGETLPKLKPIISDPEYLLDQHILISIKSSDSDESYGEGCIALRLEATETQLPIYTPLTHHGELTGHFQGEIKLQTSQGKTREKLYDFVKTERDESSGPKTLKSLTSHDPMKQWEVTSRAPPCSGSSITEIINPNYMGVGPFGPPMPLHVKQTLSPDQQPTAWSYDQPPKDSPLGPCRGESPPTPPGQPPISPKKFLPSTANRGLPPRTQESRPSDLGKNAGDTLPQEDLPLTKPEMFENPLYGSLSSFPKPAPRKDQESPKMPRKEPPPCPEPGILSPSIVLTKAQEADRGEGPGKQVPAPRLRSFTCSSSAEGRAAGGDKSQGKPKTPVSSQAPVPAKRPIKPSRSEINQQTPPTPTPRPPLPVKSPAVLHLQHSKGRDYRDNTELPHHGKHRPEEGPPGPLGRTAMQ

Grb2 = Grb2 (UniProt P62993 1-217); test: co-immunoprecipitation
SHP-1 = SHP-1 (UniProt P29350 1-595); test: co-immunoprecipitation
Sequence of SHP-1 (P29350 whole entry): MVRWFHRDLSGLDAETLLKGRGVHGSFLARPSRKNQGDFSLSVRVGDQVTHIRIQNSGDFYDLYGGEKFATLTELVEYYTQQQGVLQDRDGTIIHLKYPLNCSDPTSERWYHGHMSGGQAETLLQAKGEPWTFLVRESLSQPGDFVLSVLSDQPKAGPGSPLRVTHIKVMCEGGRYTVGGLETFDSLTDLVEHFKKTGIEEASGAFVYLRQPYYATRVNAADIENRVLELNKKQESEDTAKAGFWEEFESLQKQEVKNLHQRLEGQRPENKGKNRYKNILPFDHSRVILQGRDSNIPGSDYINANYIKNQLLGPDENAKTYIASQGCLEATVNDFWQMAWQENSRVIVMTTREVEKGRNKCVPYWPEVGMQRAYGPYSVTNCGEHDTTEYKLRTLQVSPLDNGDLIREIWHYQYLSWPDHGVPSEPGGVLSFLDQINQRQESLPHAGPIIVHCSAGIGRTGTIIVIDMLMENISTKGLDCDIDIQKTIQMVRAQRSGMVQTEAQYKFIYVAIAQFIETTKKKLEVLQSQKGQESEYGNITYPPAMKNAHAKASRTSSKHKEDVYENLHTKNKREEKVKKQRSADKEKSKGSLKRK

[5] = molecular target: T6, PD-L1 expressed on NIH 3T3 cells (UniProt Q9EP73 19-265, limits assumed); test: flow cytometry on NIH 3T3 transfectants
T6 construct: domain: extracellular domains; also called PD-L1-GFP
T6 sequence (Q9EP73 19-265 limits assumed): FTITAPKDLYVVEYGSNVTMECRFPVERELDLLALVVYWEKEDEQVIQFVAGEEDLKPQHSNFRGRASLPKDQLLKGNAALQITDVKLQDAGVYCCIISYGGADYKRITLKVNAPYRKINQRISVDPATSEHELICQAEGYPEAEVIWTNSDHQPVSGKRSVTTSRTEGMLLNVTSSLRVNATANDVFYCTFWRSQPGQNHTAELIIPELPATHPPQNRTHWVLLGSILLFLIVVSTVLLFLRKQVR
From the text: as §2

[6] = molecular target: T7, B7x extracellular domain expressed on NIH 3T3 cells (mouse, UniProt Q7TSP5 25-257); test: flow cytometry on NIH 3T3 transfectants
T7 construct: also called B7x-B7h-GFP; not shown: B7h transmembrane and cytoplasmic domains fused to GFP
T7 sequence: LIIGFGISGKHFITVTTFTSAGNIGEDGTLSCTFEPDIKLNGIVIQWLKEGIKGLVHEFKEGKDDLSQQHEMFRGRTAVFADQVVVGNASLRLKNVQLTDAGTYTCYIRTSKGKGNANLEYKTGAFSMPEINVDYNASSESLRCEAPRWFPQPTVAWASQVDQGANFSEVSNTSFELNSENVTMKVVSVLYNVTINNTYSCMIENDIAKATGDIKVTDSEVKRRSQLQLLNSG
From the text: as §2

B1: BALB/c BTLA tetramer-phycoerythrin (other)
chain: DEECEVQLNIKRNSKHSAWTGELFKIECPVKYCVHRPNVTWCKHNGTIWVPLEVGPQLYTSWEENRSVPVFVLHFKPIHLSDNGSYSCSTWFWSQVINSHSVTIHVR
modifications: biotinylated in vitro with BirA ligase; bound to streptavidin-phycoerythrin
notes: also called BALB-BTLA pET28 product; not shown: biotinylation tag of the MLL1-pET28 vector
binding result [1]: no binding | binding result [2]: no binding | binding result [3]: no binding

B5: Myc-tagged full length human BTLA, tyrosine-phosphorylated (pervanadate) (receptor)
chain: KESCDVQLYIKRQSEHSILAGDPFELECPVKYCANRPHVTWCKLNGTTCVKLEDRQTSWKEEKNISFFILHFEPMLPNDNGSYRCSANFQSNLIESHSTTLYVTDVKGASERPSKDEVASRPWLLYSLLPLGGLPLLITTWFCLFCCLRRHQGKQNELSDTAGREINLVDAHLKSEQTEASTRQNSQVLLSEAGIYDNDPDLCFRMQEGSEVCSNPCLEENKPGIVYASLNHSVIGLNSRLARNVKEAPTEYASICVRS
modifications: tyrosine-phosphorylated after pervanadate treatment (Y226, Y257, Y282 are the tyrosines studied)
notes: Expressed in Jurkat T cells; also called myc-hBTLA; Myc3-hBTLA; not shown: triple Myc tag inserted downstream of the signal peptide
binding result (SHIP): no binding | binding result (Grb2): no binding | binding result (SHP-1): no binding

B6: mouse BTLA-Fc fusion protein (Fc fusion)
chain: EKATKRNDEECPVQLTITRNSKQSARTGELFKIQCPVKYCVHRPNVTWCKHNGTICVPLEVSPQLYTSWEENQSVPVFVLHFKPIHLSDNGSYSCSTNFNSQVINSHSVTIHVTERTQNSSEHPLIISDIPDATNAS
notes: also called mBTLA-Fc; not shown: Fc-αTP part of the CD47-Fc-αTP-ires-GFP-RV vector (detected with anti-human IgG)
binding result [1]: no binding (tested: 200 ng of purified Fc-fusion protein)

The next lines start with results.

binding result [4]: no binding
B2: mB7x-Fc fusion protein (Fc fusion)
chain: LIIGFGISGKHFITVTTFTSAGNIGEDGTLSCTFEPDIKLNGIVIQWLKEGIKGLVHEFKEGKDDLSQQHEMFRGRTAVFADQVVVGNASLRLKNVQLTDAGTYTCYIRTSKGKGNANLEYKTGAFSMPEINVDYNASSESLRCEAPRWFPQPTVAWASQVDQGANFSEVSNTSFELNSENVTMKVVSVLYNVTINNTYSCMIENDIAKATGDIKVTDSEVKRRSQLQLLNSG
notes: not shown: Fc-αTP part of the CD47-Fc-αTP-ires-GFP-RV vector (detected with anti-human IgG)
binding result [1]: no binding (tested: 200 ng of purified Fc-fusion protein)

binding result [1]: binds
B3: human BTLA-Fc fusion protein (Fc fusion)
chain: KESCDVQLYIKRQSEHSILAGDPFELECPVKYCANRPHVTWCKLNGTTCVKLEDRQTSWKEEKNISFFILHFEPMLPNDNGSYRCSANFQSNLIESHSTTLYVTDVKGASERPSKDEVA
notes: Used as 1 ml of supernatant for staining; also called hBTLA-Fc; not shown: Fc-αTP part of the CD47-Fc-αTP-ires-GFP-RV vector (detected with anti-human IgG)

binding result [1]: no binding | binding result [2]: no binding | binding result [3]: no binding
B4: C57BL/6 BTLA tetramer-phycoerythrin (other)
chain: EKATKRNDEECPVQLTITRNSKQSARTGELFKIQCPVKYCVHRPNVTWCKHNGTICVPLEVSPQLYTSWEENQSVPVFVLHFKPIHLSDNGSYSCSTNFNSQVINSHSVTIHVTERTQNSSEHPLIISDIPDATNASGGGLNDIFEAQKIEWHE
modifications: biotinylated in vitro with BirA ligase on the C-terminal BirA sequence; bound to streptavidin-phycoerythrin
notes: also called B6-BTLA pET28 product

binding result [1]: no binding | binding result [5]: no binding | binding result [6]: no binding
B7: mouse BTLA tetramer (allele not stated at these places) (other, UniProt Q7TSA3 30-166, looked up)
chain: EKATKRNDEECPVQLTITRNSKQSARTGELFKIQCPVKYCVHRPNVTWCKHNGTICVPLEVSPQLYTSWEENQSVPVFVLHFKPIHLSDNGSYSCSTNFNSQVINSHSVTIHVRERTQNSSEHPLITVSDIPDATNA
modifications: biotinylated; bound to streptavidin-phycoerythrin
notes: domain: BTLA Ig domain; also called BTLA tetramers; tetramers of mouse BTLA
